Measurements from publication PMC4400361, “Oligomerization of the Polycystin-2 C-terminal Tail and Effects on Its Ca^2+-binding Properties*” (The Journal of Biological Chemistry, 2015).

Legend:
[1] = target: the molecule itself; assay: SEC-MALS; Superdex 200 10/30 GL, SEC-UV/LS/RI; Ca2+-bound holo state, 20 mM CaCl2 in the buffer; 20 mM imidazole in the buffer for HPC2 Cterm; three injected amounts for HPC2 Cterm and SUPC2 Ccore
[2] = target: the molecule itself; assay: SEC-MALS; Superdex 200 10/30 GL, SEC-UV/LS/RI; Ca2+-free apo state, no added CaCl2, 1 mM EDTA; 20 mM imidazole in the buffer for HPC2 Cterm; three injected amounts

B1: human polycystin-2 C-terminal construct, which includes the full-length cytoplasmic tail (HPC2 Cterm) (domain or fragment, UniProt Q13563 704-968, looked up)
chain: IRKGYHKALVKLKLKKNTVDDISESLRQGGGKLNFDELRQDLKGKGHTDAEIEAIFTKYDQDGDQELTEHEHQQMRDDLEKEREDLDLDHSSLPRPMSSRSFPRSLDDSEEDDDEDSGHSSRRRGSISSGVSYEEFQVLVRRVDRMEHSIGSIVSKIDAVIVKLEIMERAKLKRREVLGRLLDGVAEDERLGRDSEIHREQMERLVREELERWESDDAASQISHGLGTPVGLNGQPRPRSSRPSSSQSTEGMEGAGGNGSSNVHV
notes: polycystin-2 (PC2), human, residues I704-V968, numbered on full-length human PC2; Printed monomer mass 32.2 kDa; also called C-terminal cytoplasmic tail of human PC2; HPC Cterm
- stoichiometry N [1]: 3
- stoichiometry N [2]: 3
